Measured values as given in publication PMC10638775, “Development of synthetic modulator enabling long-term propagation and neurogenesis of human embryonic stem cell-derived neural progenitor cells”.

Molecular target: FGFR1 extracellular domain (human, UniProt P11362 22-376)
Assay: SPR; 1:1 model; ka 2.20E10 1/Ms, kd 54.9 1/s; SPR: Biacore T200, CM5 amine coupling, HBS running buffer (pH, salt, temperature not stated); flow cytometry: PBS, 1% BSA, 0.1% sodium azide, room temperature
Details: protein: commercial; stem-loop (Mfold)

Chain of FGFR1 extracellular domain (P11362 22-376): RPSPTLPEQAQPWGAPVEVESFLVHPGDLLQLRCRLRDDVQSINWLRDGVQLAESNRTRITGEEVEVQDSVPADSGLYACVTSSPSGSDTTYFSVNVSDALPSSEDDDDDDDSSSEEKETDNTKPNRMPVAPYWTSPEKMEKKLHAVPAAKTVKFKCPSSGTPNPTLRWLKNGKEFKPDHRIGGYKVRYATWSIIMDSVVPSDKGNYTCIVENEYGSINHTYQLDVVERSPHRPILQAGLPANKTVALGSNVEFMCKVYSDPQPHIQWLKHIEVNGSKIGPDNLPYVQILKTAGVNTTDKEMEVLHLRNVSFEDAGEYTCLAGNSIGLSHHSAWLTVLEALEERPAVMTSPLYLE

B1: FGFR-binder (structured_DNA)
DNA: GCCGCGTCTTTATGGCTGGGGATGGTGTGGGTTGCGGC
- Kd: 2.5 nM
